Results: the DeepSol protein solubility set

Experiment: soluble on expression in E. coli; label from the status in PepcDB or PDB records

Sequence | soluble on expression in E. coli
MGSDKIHHHHHHMKLNTLLQRLDQTVPLAFDTSLQNPEITSLQFDDDTTLSLHPTSLYLAVSADQTITLKGSVGKTAQLSLCAQMQLKNESQLAQLFDRAGCLLTSETSLQAQVNQLAIKAITEDFDTILNQAARTLGNPLIVLDLVGQPVAQSTQAPAISDLTAPAITSVQVQQALKKFRPAKDLIPQVILIQQSQLPLLLLCLPLAYRNNALGYLVMPACVRPLTAEQTAFFKAEAKIITSSLIKNRMMPTAASKRDQLLTMLLTEQQSGTFAAQFAKEHATLPTSMVLIKGEPRAGQSLAALKERLKYLLTPLFSQTLITLYHHQCLALVSVDLPTYNNPEFKADLATIADRANCRLIVSNQYTRPEDTIAAYAVCSRTAKLKSQPTHVTMCEDAFFDLMLAQVDHAEILPFFINPAVKALMDHDAENKTELLPTLDAYLESGENLTHTARQLFIHLNTLRYRLKHISDITGIDLKDAETCFKLGASFKVRRYLNHNKLTFTR | not soluble
MSSKNTAEVILGGKVIKLGGYESEEYLQRVASYINNKITEFNKEESYRRMSAELRTDMMYLNIADDYFKAKKMADSLSLDIENKDKEIYDLKHELIAAQIKAESSAKEIKELKSEINKYQKNIVKLETELNDSKK | soluble
MGSDKIHHHHHHMQLTVWTYEGPPHVGAMRVATGMEGLHYVLHAPQGDTYADLLFTMIERRDRRPPVTYTTFAARDLGKDTAELFKTAAQNAYDRFKPQAMIVGASCTGSLIQDDPGGLAKALALPIPVVAIDLPAYQRKENWGAAETFYQLVRAIAGPKAPPPGSKRPERPAGKRPSCNLLGPTALGFRHRDDIIELTTLLGKLGIDVNVTAPMGATPADLARLGEADFNVVMYPETASQAASWLHRMFHQPFTKIVPIGVSATREFIEEVAKLADVDPTAVLKSYSSRLPWYSHSVDSTYLTGKRVFIFGDATHVVAAARMASDEMGFKVVGLGTYSREFGREIREAAKLYDVEPLITDDYLEVEAKVAELHPELVLGTQMERHIAKRLGVPCAVISAPVHVQDFPARYAPQMGFEGANVIFDTWVHPLMMGLEEHLLTMFRDDFEFKDGATPSHLGVGHAPAPAPAVADSAAVEVLDATTATTTETTTAVWAADAEKELRKIPFFVRGKARRNTERFANENGVATITVETLYDAKAHFSR | not soluble
MSDRATTTASLTFESLYGTHHGWLKSWLTRKLQSAFDADDIAQDTFLRVMVSETLSTIRDPRSFLCTIAKRVMVDLFRRNALEKAYLEMLALMPEGGAPSPEERESQLETLQLLDSMLDGLNGKTREAFLLSQLDGLTYSEIAHKLGVSISSVKKYVAKAVEHCLLFRLEYGL | soluble
MDVFELTKKTLLAVISESSSSDDYLEALAEIEGLVKHEAAATSFQLMERGKVRELAVPKPEFYNKRRKFEDFQEKTVFDWKSEFNLKNAKKVERWTVEEKEKREKQRCFIEVEHYKKKEYLNFLYPGVHYCTCPYFQSTVLQKQTNWICVHILAYYFAKNFGKIERIECKSEIVGLVKKIFIRSIFLEEKK | not soluble
MLFDTHAHLNAVQYEEDLEQVIERARDEGVSHIVVVGFDRPTIDRAIELAERYPFIYAAVGWHPVDAIEMTDDDLQMIEQLAAHPKVVALGEMGLDYHWDKSPKDVQQEVFRQQIRLAKKVKLPIIIHNREATADILKILQEENAAEVGGIMHCFSGSVEVAKQCMDMNFLISLGGPVTFKNAKKPKEVAKEIPLSHLLIETDCPYLTPHPFRGKRNEPSYVKYVAEAIAQIKNISFAEVAETTAENAKKLFAIDR | not soluble
GMEVNRLSALTPPMGWNSWDCYGASVTEEEVLGNAEYMANHLKKYGWEYIVVDIQWYEPTANSSAYNPFAPLCMDEYGRLLPATNRFPSAKNGAGFKPLSDAIHDLGLKFGIHIMRGIPRQAVYENSPVLGSTKTAREIAHTNSICPWNTDMYGVDPTKEGAQSYYNSLFELYAQWGVDFVKVDDIAASRLYDTHLEEIKMIQRAIQACGRPMVLSLSPGPAPIKYAHHFKTNANMWRITDDFWDDWSLLYQMFERCEVWEKHIGTGHWPDCGMLPLGHIGIRSVDGPGGDRWTRFTKDEQLTMMNLWAICHSPLMFGGELRDNDEWTLSLLTNEGILSINQKSVLNRFVYREEDKVAWAANGRNGEAYVALFNLHDQQKTLQFRLDMVGIMETVQLFNVWDRSFLQSLAPSESFQIELKPHQSMMLKLSPDR | soluble
MTTGNNDFYYSNKYEDDEFEYRHVHVTKDVSKLIPKNRLMSETEWRSLGIQQSPGWMHYMIHGPERHVLLFRRPLAATQKTGGNVRSGNAVGVR | not soluble
SIDKNFWQGKRVFVTGHTGFKGSWLSLWLTEMGAIVKGYALDAPTVPSLFEIVRLNDLMESHIGDIRDFEKLRSSIAEFKPEIVFHMAAQPLVRLSYEQPIKTYSTNVMGTVHLLETVKQVGNIKAVVNITSDKCYDNREWVWGYRENEPMGGYDPYSNSKGCAELVASAFRNSFFNPANYEQHGVGLASVRAGNVIGGGDWAKDRLIPDILRSFENNQQVIIRNPYSIRPWQHVLEPLSGYIVVAQRLYTEGAKFSEGWNFGPRDEDAKTVEFIVDKMVTLWGDDASWLLDGENHPHEAHYLKLDCSKANMQLGWHPRWGLTETLSRIVKWHKAWIRGEDMLICSKREISDYMSATTR | soluble
MGSDKIHHHHHHMRVLVINSGSSSIKYQLIEMEGEKVLCKGIAERIGIEGSRLVHRVGDEKHVIERELPDHEEALKLILNTLVDEKLGVIKDLKEIDAVGHRVVHGGERFKESVLVDEEVLKAIEEVSPLAPLHNPANLMGIKAAMKLLPGVPNVAVFDTAFHQTIPQKAYLYAIPYEYYEKYKIRRYGFHGTSHRYVSKRAAEILGKKLEELKIITCHIGNGASVAAVKYGKCVDTSMGFTPLEGLVMGTRSGDLDPAIPFFIMEKEGISPQEMYDILNKKSGVYGLSKGFSSDMRDIEEAALKGDEWCKLVLEIYDYRIAKYIGAYAAAMNGVDAIVFTAGVGENSPITREDVCSYLEFLGVKLDKQKNEETIRGKEGIISTPDSRVKVLVVPTNEELMIARDTKEIVEKIGR | not soluble
MKVIKGLTAGLIFLFLCACGGQQIKDPLNYEVEPFTFQNQDGKNVSLESLKGEVWLADFIFTNCETICPPMTAHMTDLQKKLKAGNIDVRIISFSVDPENDKPKQLKKFAANYPLSFDNWDFLTGYSQSEIEEFALKSFKAIVKKPEGEDQVIHQSSFYLVGPDGKVLKDYNGVENTPYDDIISDVKSASTLKLEHHHHHH | not soluble
MESYSQRQDHELQALEAIYGSDFQDLRPDARGRVREPPEINLVLYPQGLAGEEVYVQVELRVKCPPTYPDVVPEIDLKNAKGLSNESVNLLKSHLEELAKKQCGEVMIFELAHHVQSFLSEHNK | soluble
MGSDKIHHHHHHMGMQARYDGVAVCAPITVPYVRFSPESAHWWTGAALRALGQKTGLNAGDIDGFCFASFSSAPDTVVGMVQHLGLSPRWMDHIPTGGASGIMALRRAARAVQCGDAEVVACVAADTNQIDSYRQTLAGFSRFSQDATYPYGFGGPNATFALITDNFMRQFGTTRETFGKLCVAQRENALSNPLALMKKPLTIEHYMNARPISDPVHLFDCVMPCAGAEAFLVTTPDKAEQLGLSTARILSTIERHNAFADDTVQFRGGWERDQEALWDRAGCGPGDVQCVQVYDDYPVIVAMQLADLGFCSKPGLNDFIAANEFTISGSLPLNTNGGQLSAGQAGAAGGFQNVTEGLRQILQCPLGEQVSDAHRALVSGFGLVNYDRGTCTGAAVLQREALR | not soluble
MKVLIDTNVILDVLLNRASFVQDAIAVLELTCGNIQAYVSASAITDIYYIAYKELRDKIRVKNLIKTLLQIITVAGISDKEIMSAIDSDWADFEDSLQNAVAESHDCSMIITRNISDFNGSNLQIISPKDFIVQFTHLEHHHHHH | not soluble
SENLYFQSKVTVGPDPSLVYRPDVDPEVAKDKASFRNYTSGPLLDRVFTTYKLMHTHQTVDFVRSKHAQFGGFSYKKMTVMEAVDLLDGLVDESDPDVDFPNSFHAFQTAEGIRKAHPDKDWFHLVGLLHDLGKVLALFGEPQWAVVGDTFPVGCRPQASVVFCDSTFQDNPDLQDPRYSTELGMYQPHCGLDRVLMSWGHDEYMYQVMKFNKFSLPPEAFYMIRFHSFYPWHTGRDYQQLCSQQDLAMLPWVREFNKFDIYTKCPDLPDVDKLRPYYQGLIDKYCPGILSW | soluble
MSLKYFEFTFHTSPCTETVNDVLAAVLGEAGFESFVESEGGLTAYIQQALCDENTIKNAITEFPLPDTEITYTYVEAEDKDWNEEWEKNFFQPIVIDNRCVIHSTFHKDVPQATYDIVINPQMAFGTGHHETTSLIIGELLDNELKDKSLLDMGCGTSILAILARMRGARPCIAIDIDEWCVRNSIENIELNHVDDIAVSQGDASSLVGKGPFDIIIANINRNILLNDMKQYVACMHPGSELYMSGFYVDDIPFIRREAEKNGLTFVHHKEKNRWAAVKFTYEGHHHHHH | soluble
IVPTRELENVFLGRCKDYEITRYLDILPRVRSDCSALWKDFFKAFSFKNPCDLDLGSYKDFFTSAQQQLPKNKVMFWSGVYDEAHDYANTGRKYITLEDTLPGYMLNSLVWCGQRANPGFNEKVCPDFKTCPVQARESFWGMASSSYAHSAEGEVTYMVDGSNPKVPAYRPDSFFGKYALPNLTNKVTRVKVIVLHRLGEKIIEKCGAGSLLDLEKLVKAKHFAFDCVENPRAVLFLLCSDNPNARECRLAKRFYRIA | soluble
MRVIKIQTKGDVRISYAIETIRINEWTKAIAEVIFEKDGVPEWEIEAVSRMSSDYVGSLGSEFEILDVSIDRRTNSYKIKGKYEGFYLAGTPIEAIEKDIVESVLSLRFESLDVYEVNIEDPFEDYDPSEYWELMDWEELEHHHHHH | not soluble
MGSDKIHHHHHHMNAVTIFVHGFNGNADSTDHLIHGAQKNGWAQKMLVVKIKNDGAMDFDGELDQQVANPMVQVLFENNRAPERRQVSWMHQLLIKLRQSFGVEQYNGVGHSLGSNVLVNLAIKFGKDSRLPALKKLVTIAGPFNGLHGFLSQDTVKDVMTKSWEPNKRTHHFKKLVRNRHLFPKGAEVLNVIGSVDGILNNDVYVAVDSARAVGYLLDGVAAKVSELMVIGPDGYHCELNRSQNVSREINQFLWDEKYIAQDFKLINSYRADKVYQLAPEELNWAN | not soluble
AKQAAQSTFNSFHEWAKQAEAMRNPSRMDIYKIYKQDAPHSHPMSDEQQEEFLHTLKALNGKNGIEVRTQDHDSVRNKKDRNLDKYIAESPDAKRFFYRIIPKHERREDKNQGRLTIGVQPQYATQLTRAMATLIGKESAITHGKVIGPACHGQMTDSAVLYINGDVAKAEKLGEKLKQMSGIPLDAFVEHTPLSMQSLSKGLSYAESILGDTRGHGMSRAEVISDALRMDGMPFLARLKLSLSANG | not soluble
MRKVETTKAPQAIGPYSQGIIVNNMFYSSGQIPLTPEGELVKGDIQAQTHQVFQNLKAVLEAAGASLDTVVKTTVFLKNMDDFAAMNEVYSQYFPNHKPARSCVEVARLPKDVLVEIEVVALVP | soluble
MMSDRHFQGNRIRLRAPEPEDLEVMFRFENATDVWEMSNTTGPYSRFQLKQYIEQTQNDLFADRQLRLMIENGNRQVVGIVDLCSFDPLHNRAEVGIMVDKSCRRQGIGRNALALLEEHCFRYLGIHQLFAYIAVENLPSRRLFAACGYKESAVLKEWAHTFGGGYTDVLVVQKLNLS | not soluble
MEFTGKIIAILPPRGGVSKTSGNEWKSQEFVIENHDQYPRKMCFDVFGADKIEQFNIQMGEELTVSFDVDARQWNDRWFNSIRAWKVERVGAGAPMTPGAPVPPPAPSATPDFTMGDAKDDLPF | not soluble
